According to publication PMC11310207:

What was measured:
Assay in all cases: fluorescence polarisation
[1] = molecular target: FAM-GGFLRRI, N-terminally FAM-labeled Dyn A (2–8)
[2] = molecular target: FAM-…, N-terminally FAM-labeled Dyn A (2–13)
[3] = molecular target: FAM-…, N-terminally FAM-labeled Dyn A (2–17)

In the case of “rNln (Met37–Ser704) E475A, C-terminal 6xHis-tag, catalytically inactive mutant (from UniProt P42676 37-704) (enzyme)”, the Kd [1] is reported as 23.7 µM, the Kd [2] is reported as 4.69 µM and the Kd [3] is reported as 3.26 µM.
